Test results: patent US20150359864A1, “PHARMACEUTICAL COMPOSITION CONTAINING PEPTIDES” (ONCOTHERAPY SCIENCE, INC., priority 2012, published 2015)

Assays:
[1] = Combination peptide injection preparation using sodium carbonate solution (Example 5); type: physicochemical; set-up: key to Dissolution on successive addition, Example 5 (Na2CO3) (2 mg each) / Dissolution of further 2 mg of Peptide 2, Example 5 (Na2CO3): ◯: Dissolved; X: White Turbid; conditions: 2 mg each peptide added one after another to 1 ml sodium carbonate solvent
Procedure: In order to prepare an injection preparation containing combination of the peptides shown in Table 1, the 10 types of peptides shown in Table 1 were added in an amount of 2 mg each to 1 ml of the injection solvent containing sodium carbonate as used in Example 1. The addition of each peptide was conducted in the same manner as in Example 4.

[2] = Preparation of single peptide injection preparations using arginine solution (Example 2); type: physicochemical; conditions: for Whether injection preparation could be prepared (in words): 5 mg to 20 mg peptide in 1 ml injection solvent containing arginine; for Peptide concentration at which injection preparation could be prepared, Example 2 (Arg): 40 mg L-arginine in 1 ml injection solvent, class symbol; for pH of injection preparation, Example 2 (Arg): injection solvent containing arginine
Procedure: 40 mg of L-arginine was dissolved in 1 ml of an injection solvent to obtain an injection solvent containing arginine. In order to prepare formulations of each peptide that was not dissolved in an injection solvent in Comparative Example 1, Peptides 1, 2, 4, 7, and 10 were separately added to 1 ml of injection solvents containing arginine.
In the case of Peptide 1, it was confirmed that the injection preparation could be obtained with the addition of 6 mg of peptide at the maximum. All the obtained injection preparations had pH levels within adequate range for injection (Table 2).

[3] = Preparation of single peptide injection preparations using injection solvent (Comparative Example 1); conditions: for Whether injection preparation could be prepared (in words): 2 mg to 20 mg peptide in 1 ml injection solvent; for Peptide concentration at which injection preparation could be prepared, Comparative Example 1 (injection solvent): injection solvent (water), room temperature
Procedure: Pharmaceutical water defined by the Japanese Pharmacopoeia was used as an injection solvent.
In order to prepare formulations containing one of the peptides shown in Table 1, each of the peptides shown in Table 1 were added to 1 ml of an injection solvent. The resultants were agitated at room temperature so as to dissolve the entire amounts of the peptides added, and thereby colorless and clear solutions of each peptide were obtained. Thereafter, the peptide solutions were sterilized via filtration (with the use of a 0.22-μm filter) to obtain injection preparations.
The amounts of peptides added varied within the range of 2 mg to 20 mg, and injection preparations were prepared at each concentration. […] For these peptides, peptide concentrations that enable preparation of injection preparations were investigated.

[4] = Preparation of injection preparations using sodium carbonate/arginine solution (Example 3); type: physicochemical; conditions: for Peptide concentration at which injection preparation could be prepared, Example 3 (Na2CO3/Arg): 41 mg sodium carbonate decahydrate and 40 mg L-arginine in 1 ml injection solvent; for pH of injection preparation, Example 3 (Na2CO3/Arg): injection solvent containing sodium carbonate and arginine
Procedure: 41 mg of sodium carbonate decahydrate and 40 mg of L-arginine were dissolved in 1 ml of an injection solvent to obtain an injection solvent containing sodium carbonate and arginine.
In the case of Peptide 3, it was confirmed that the injection preparation could be obtained with the addition of 15 mg of peptide at the maximum. All the obtained injection preparations had pH levels within adequate range for injection (Table 2).

[5] = Combination peptide injection preparation using arginine solution (Example 4); type: physicochemical; set-up: key to Dissolution on successive addition, Example 4-1 (Arg) (1 mg each) / Dissolution on successive addition, Example 4-2 (Arg) (2 mg each): ◯: Dissolved; X: White Turbid; conditions: for Dissolution on successive addition, Example 4-1 (Arg) (1 mg each): 1 mg each peptide added one after another to 1 ml arginine solvent
Procedure: In order to prepare an injection preparation containing combination of the peptides shown in Table 1, the 10 types of peptides shown in Table 1 were added in an amount of 1 mg each to 1 ml of the injection solvent containing arginine as used in Example 2. The entire amount of one peptide was dissolved upon addition thereof to obtain a colorless and clear solution, and another peptide was then added thereto.
Subsequently, preparation of another injection preparation containing combination of the peptides was attempted in the same manner as described above, except that the amount of each peptide added was changed to 2 mg. […] Thus, no other peptides were added thereafter.

[6] = Combination peptide injection preparation using sodium carbonate/arginine solution (Example 6); type: physicochemical; set-up: key to Dissolution on successive addition, Example 6 (Na2CO3/Arg) (2 mg each) / Dissolution of further 2 mg of Peptide 2, Example 6 (Na2CO3/Arg): ◯: Dissolved; X: White Turbid; conditions: 2 mg each peptide added one after another to 1 ml sodium carbonate/arginine solvent
Procedure: In order to prepare an injection preparation containing combination of the peptides shown in Table 1, the 10 types of peptides shown in Table 1 were added in an amount of 2 mg each to 1 ml of the injection solvent containing sodium carbonate and arginine as used in Example 3. The addition of each peptide was conducted in the same manner as in Example 4.

[7] = Preparation of single peptide injection preparations using sodium carbonate solution (Example 1); type: physicochemical; conditions: for Whether injection preparation could be prepared (in words): 5 mg to 20 mg peptide in 1 ml injection solvent containing sodium carbonate; for Peptide concentration at which injection preparation could be prepared, Example 1 (Na2CO3): 41 mg sodium carbonate decahydrate in 1 ml injection solvent, class symbol; for pH of injection preparation, Example 1 (Na2CO3): injection solvent containing sodium carbonate
Procedure: 41 mg of sodium carbonate decahydrate (Na2CO3.10H2O) was dissolved in 1 ml of an injection solvent to obtain an injection solvent containing sodium carbonate. In order to prepare formulations of the each peptide that was not dissolved in an injection solvent in Comparative Example 1, Peptides 1, 2, 4, 7, and 10 were separately added to 1 ml of injection solvents containing sodium carbonate.
In the case of Peptide 1, it was confirmed that the injection preparation could be obtained with the addition of 9 mg of peptide at the maximum. All the obtained injection preparations had pH levels within adequate range for injection (Table 2).

[8] = Stability of lyophilized formulation, peptide content in the vial by HPLC (Example 7); type: physicochemical; conditions: 25 degrees C., humidity 60%, relative to comparative solution peak area = 100%
Procedure: 107.7 g of L-arginine and 110.4 g of sodium carbonate hydrate were dissolved in 5,500 ml of an injection solvent. Peptide 1, Peptide 2, Peptide 3, and Peptide 4 were dissolved therein in amounts of 6.2 g, 7.5 g, 8.7 g, and 8.0 g, respectively. Thereafter, the total amount of the solution was adjusted to 7,000 ml with the addition of an injection solvent, and a combination peptide solution was obtained. […] Following lyophilization, the vial was fully stoppered and the aluminum cap seaming was conducted. Thus, a lyophilized formulation was produced.
Further, the results shown above were subjected to regression analysis, so as to predict stability 24 months later.

Sequence | Dissolution on successive addition, Example 5 (Na2CO3) (2 mg each) [1] | Whether injection preparation could be prepared (in words) [3] | Peptide concentration at which injection preparation could be prepared, Example 3 (Na2CO3/Arg) ([4]; class symbol) | pH of injection preparation, Example 3 (Na2CO3/Arg) [4] | Dissolution on successive addition, Example 4-1 (Arg) (1 mg each) [5] | Dissolution on successive addition, Example 6 (Na2CO3/Arg) (2 mg each) [6] | Peptide concentration at which injection preparation could be prepared, Comparative Example 1 (injection solvent) ([3]; class symbol) | also measured
SYRNEIAYL (T cell epitope) [Peptide 7] | ◯ | not possible to prepare the injection preparations regardless of the amounts of peptides added | ⊚ (20 mg/ml or more) | 9.97 | ◯ | ◯ |  | Whether injection preparation could be prepared (in words) [2]: possible to prepare the injection preparations regardless of the amounts of peptides added; Peptide concentration at which injection preparation could be prepared, Example 2 (Arg) [2]: ⊚ (20 mg/ml or more); pH of injection preparation, Example 2 (Arg) [2]: 9.68; Peptide concentration at which injection preparation could be prepared, Comparative Example 1 (injection solvent) ([3]; numeric): 0.5 mg/mL; Whether injection preparation could be prepared (in words) [7]: possible to prepare the injection preparations regardless of the amounts of peptides added; Peptide concentration at which injection preparation could be prepared, Example 1 (Na2CO3) [7]: ⊚ (20 mg/ml or more); pH of injection preparation, Example 1 (Na2CO3) [7]: 9.18
EYCPGGNLP (EYCPGGNLF; T cell epitope) [Peptide 8] | ◯ | possible to prepare the injection preparations regardless of the amounts of peptides added | ⊚ (20 mg/ml or more) | 9.80 | ◯ | ◯ | ⊚ (20 mg/ml or more) | 
RFVPDGNRI (T cell epitope) [Peptide 6] | ◯ | possible to prepare the injection preparations regardless of the amounts of peptides added | ⊚ (20 mg/ml or more) | 10.55 | ◯ | ◯ | ⊚ (20 mg/ml or more) | 
KVYLRVRPLL (T cell epitope) [Peptide 3] | ◯ | possible to prepare the injection preparations regardless of the amounts of peptides added |  |  | ◯ | ◯ | ⊚ (20 mg/ml or more) | Peptide content in the vial, 0 months [8]: 103.7%; Peptide content in the vial, 1 month [8]: 103.4%; Peptide content in the vial, 3 months [8]: 102.7%; Peptide content in the vial, 6 months [8]: 100.1%; Peptide concentration at which injection preparation could be prepared, Example 3 (Na2CO3/Arg) ([4]; numeric): 15 mg/mL; Maximum amount of peptide added that gave an injection preparation ([4]; in 1 ml injection solvent containing sodium carbonate and arginine): 15 mg; Dissolution on successive addition (in words), Example 4 ([5]; 2 mg each in 1 ml arginine solvent, added after Peptide 1 and Peptide 2): white turbidity; Dissolution on successive addition, Example 4-2 (Arg) (2 mg each) ([5]; 2 mg each peptide added one after another to 1 ml arginine solvent): X
RYCNLEGPPI (T cell epitope) [Peptide 5] | ◯ | possible to prepare the injection preparations regardless of the amounts of peptides added | ⊚ (20 mg/ml or more) | 10.20 | ◯ | ◯ | ⊚ (20 mg/ml or more) | 
DYLNEWGSRF (T cell epitope) [Peptide 10] | ◯ | not possible to prepare the injection preparations regardless of the amounts of peptides added | ⊚ (20 mg/ml or more) | 10.14 | ◯ | ◯ | X (0.08 mg/ml or less) | Whether injection preparation could be prepared (in words) [2]: possible to prepare the injection preparations regardless of the amounts of peptides added; Peptide concentration at which injection preparation could be prepared, Example 2 (Arg) [2]: ⊚ (20 mg/ml or more); pH of injection preparation, Example 2 (Arg) [2]: 9.87; Whether injection preparation could be prepared (in words) [7]: possible to prepare the injection preparations regardless of the amounts of peptides added; Peptide concentration at which injection preparation could be prepared, Example 1 (Na2CO3) [7]: ⊚ (20 mg/ml or more); pH of injection preparation, Example 1 (Na2CO3) [7]: 9.35
VYGIRLEHF (T cell epitope) [Peptide 9] | ◯ | possible to prepare the injection preparations regardless of the amounts of peptides added | ⊚ (20 mg/ml or more) | 9.84 | ◯ | ◯ | ⊚ (20 mg/ml or more) | 
